What was measured:
[1] = target: IFNλR1 (Homo sapiens) (UniProt Q8IU57); conditions: cited from earlier work
[2] = target: T1, IFNλR1 (UniProt Q8IU57 21-226, biotin (in SPR, MST and yeast staining); fluorescent dye NanoTemper NT-L020 (in MST)); test: cell-based or functional assay
[3] = target: T1, IFNλR1; test: SPR; Biacore T200, 22 °C, equilibrium method; ~850 RU biotinylated IFNλR1 captured on a Biotin CAPture chip, IFNλ4 as analyte, nine points; 10 mM MES pH 5.6, 500 mM NaCl, 10% glycerol, 0.05% Tween20; 1:1 binding model; conditions: both partners purified
[4] = target: T2, IFNλ4 (human, UniProt K9M1U5-1 22-179); test: MST
T2 chain: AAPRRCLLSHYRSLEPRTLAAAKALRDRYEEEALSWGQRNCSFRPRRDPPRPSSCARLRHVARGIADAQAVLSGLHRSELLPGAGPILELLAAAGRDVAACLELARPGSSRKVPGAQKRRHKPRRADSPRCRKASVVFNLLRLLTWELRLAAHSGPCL

[5] = target: T3, IFNλ3 (UniProt Q8IZI9 34-196); test: MST
T3 chain: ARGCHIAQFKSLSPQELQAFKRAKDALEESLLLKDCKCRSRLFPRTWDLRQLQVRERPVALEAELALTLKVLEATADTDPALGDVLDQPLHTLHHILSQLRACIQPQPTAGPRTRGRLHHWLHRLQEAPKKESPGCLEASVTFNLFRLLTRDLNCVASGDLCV

IFNλ3 (from UniProt Q8IZI9)
Kd [1]: 850 nM

B1: IFNλ4 (ligand, human, UniProt K9M1U5-1 22-179, looked up)
chain: T2 chain
notes: codon-optimised gene; also called interferon lambda 4; source: insect Hi5 cells (baculovirus), secreted as sfGFP-10RB-IFNλ4, cleaved with 3C protease, purified (S75 Superdex)
pSTAT1 signaling in Hap1 cells, EC50 relative to IFNλ3 [2]: 20 fold | Kd [3]: 191 nM

B2: IFNλR1 (receptor)
chain: RPRLAPPQNVTLLSQNFSVYLTWLPGLGNPQDVTYFVAYQSSPTRRRWREVEECAGTKELLCSMMCLKKQDLYNKFKGRVRTVSPSSKSPWVESEYLDYLFEVEPAPPVLVLTQTEEILSANATYQLPPCMPPLDLKYEVAFWKEGAGNKTLFPVTPHGQPVQITLQPAASEHHCLSARTIYTFSVPKYSKFSKPTCFLLEVPEAN
modifications: biotin (in SPR, MST and yeast staining); fluorescent dye NanoTemper NT-L020 (in MST)
Kd [4]: 396 nM | Kd [5]: 1580 nM

— publication PMC11742915 (Nature Communications, 2025)
